Assays:
Format in all cases: in vivo, human
[1] = system: HER2 negative hormone receptor-positive metastatic breast cancer; test: AIPAC Phase IIb study: progression-free survival (PFS); conditions: investigator read; for PFS absolute gain / PFS Hazard Ratio: vs paclitaxel + placebo
Procedure: (§1) A Phase IIb clinical study was carried out to investigate the safety and efficacy of the active immunotherapy IMP321 in combination (adjunctive) with paclitaxel chemotherapy in patients with HER2 negative hormone receptor-positive metastatic breast cancer.
(§2) A multicentre, placebo-controlled, double-blind, 1:1 randomised Phase IIb study in female HER2 negative hormone receptor-positive metastatic breast cancer patients was conducted. The study comprised two stages: • stage 1 which was an open-label, safety run-in stage consisting of cohorts 1 and 2 to confirm the recommended Phase II dose (RPTD) of IMP321 in combination with paclitaxel; and • stage 2 which was a placebo-controlled, double-blind randomisation stage, paclitaxel+IMP321 at the RPTD compared to paclitaxel+placebo.
(§3) Paclitaxel+IMP321 at the RPTD of 30 mg (114 patients):
(§4) The chemo-immunotherapy phase consisted of 6 cycles of 4 weeks. Patients received weekly paclitaxel at Days 1, 8 and 15 with adjunctive treatment of study agent (IMP321) on Days 2 and 16 of each 4-week cycle. After completion of the 6-cycle chemo-immunotherapy phase, responding or stable patients received study agent (IMP321) every 4 weeks during the maintenance phase for an additional period of up to 12 injections.
(§5) Active Comparator: Paclitaxel+Placebo (112 patients):
as §4, with “(placebo)” for “(IMP321)”
Primary Outcome Measures: • 1. Stage 1 to determine the recommended phase two dose (RPTD) for the randomised phase • 2. Assessment of Progression-Free Survival (PFS)

[2] = system: HER2 negative hormone receptor-positive metastatic breast cancer; test: AIPAC Phase IIb study: overall survival (OS)
Procedure: as §1, §2, §3, §4, §5
as §4, with “(placebo)” for “(IMP321)”
(§6) Secondary Outcome Measures: • 1. […] Assessment of the overall survival (OS) • 3. […] Evaluation of the time to next treatment • 6. Evaluation of objective response rate (ORR) • 7. Evaluation of stable disease

[3] = system: HER2 negative hormone receptor-positive metastatic breast cancer; test: AIPAC Phase IIb study: best overall response acc. to RECIST 1.1 by BICR (ORR, DCR); conditions: entire patient population
Procedure: as §1, §2, §3, §4, §5
The chemo-immunotherapy phase consisted of 6 cycles of 4 weeks. […]

[4] = AIPAC: quality of life (QoL); conditions: at week 25
Excerpt: as §6

[5] = Pharmacokinetics of s.c. IMP321 in metastatic renal cell cancer patients
[6] = Safety of s.c. IMP321 doses

B1: IMP321: recombinant soluble human LAG-3Ig fusion protein, 160-kDa dimer: extracellular domain of hLAG-3 fused to the human IgG1 Fc (protein)
chain: LQPGAEVPVVWAQEGAPAQLPCSPTIPLQDLSLLRRAGVTWQHQPDSGPPAAAPGHPLAPGPHPAAPSSWGPRPRRYTVLSVGPGGLRSGRLPLQPRVQLDERGRQRGDFSLWLRPARRADAGEYRAAVHLRDRALSCRLRLRLGQASMTASPPGSLRASDWVILNCSFSRPDRPASVHWFRNRGQGRVPVRESPHHHLAESFLFLPQVSPMDSGPWGCILTYRDGFNVSIMYNLTVLGLEPPTPLTVYAGAGSRVGLPCRLPAGVGTRSFLTAKWTPPGGGPDLLVTGDNGDFTLRLEDVSQAQAGTYTCHIHLQEQQLNATVTLAIITVTPKSFGSPGSLGKLLCEVTPVSGQERFVWSSLDTPSQRSFSGPWLEAQEAQLLSQPWQCQLYQGERLLGAAVYFTELSSPG
modifications: left off: small tags and cut ends; a dimerising Fc or GST
notes: recombinant soluble human LAG-3Ig fusion protein, 160-kDa dimer: extracellular domain of hLAG-3 fused to the human IgG1 Fc
PFS median ([1]; Luminal B type): 7.2 months
PFS absolute gain ([1]; Luminal B type): +1.7 months
Median PFS ([1]; age < 65 years): 7.2 months
PFS absolute gain ([1]; age < 65 years): +1.7 months
PFS median ([1]; low (<0.25 × 10^9/L) monocytes at baseline): 7.5 months
PFS absolute gain ([1]; low monocytes at baseline): +2.3 months
Median PFS ([1]; with prior CDK4/6 therapy): 5.6 months
PFS Hazard Ratio ([1]; with prior CDK4/6 therapy): HR 1.02
PFS absolute gain ([1]; with prior CDK4/6 therapy): −1.1 months
Median PFS ([1]; without prior taxane therapy): 7.2 months
PFS Hazard Ratio ([1]; without prior taxane therapy): HR 0.88
PFS absolute gain ([1]; without prior taxane therapy): +1.7 months
Median OS ([2]; Luminal B type, investigator read): 16.3 months
OS absolute gain ([2]; Luminal B type, investigator read, vs paclitaxel + placebo): +3.8 months
Median OS ([2]; age < 65 years, investigator read): 21.9 months
OS absolute gain ([2]; age < 65 years, investigator read, vs paclitaxel + placebo): +7.1 months
OS Hazard Ratio [95% CI] ([2]; entire patient population, investigator read, vs paclitaxel + placebo): 0.83
gain in median OS ([2]; entire patient population, vs paclitaxel + placebo): 2.7 months
Median OS ([2]; low (<0.25 × 10^9/L) monocytes at baseline, investigator read): 22.4 months
OS absolute gain ([2]; low monocytes at baseline, investigator read, vs paclitaxel + placebo): +9.4 months
Median OS ([2]; with prior CDK4/6 therapy, investigator read): 20.2 months
OS Hazard Ratio ([2]; with prior CDK4/6 therapy, investigator read, vs paclitaxel + placebo): HR 0.84
Median OS ([2]; without prior taxane therapy, investigator read): 21.4 months
OS Hazard Ratio ([2]; without prior taxane therapy, investigator read, vs paclitaxel + placebo): HR 0.69
Progressive disease [3]: fewer patients with immediate progression
deterioration in Quality of Life (QoL) [4]: not observed
systemic exposure ([5]; doses of 6-30 mg per s.c. injection, metastatic renal cell cancer patients): acceptable systemic exposure
blood concentration of IMP321 ([5]; for at least 24 hours after s.c. injection, doses of more than 6 mg): > 1 ng/mL
safety ([6]; doses of 6-30 mg per s.c. injection): safe
dose limiting toxicity ([6]; to date): No dose limiting toxicity has been observed
